Data on one substance can be found in patent publication US20030147883A1.

Experiment [1] addresses Epitope tagged high affinity fMLP receptor FPR (on ETFR cells) (UniProt P21462). As to the kind of experiment: cell-based or functional assay.
For experiment [2], the target named is FPR-like receptor 1 (FPRL1) (UniProt P25090). As to the kind of experiment: cell-based or functional assay.
Chain of FPR-like receptor 1 (FPRL1) (P25090 whole entry): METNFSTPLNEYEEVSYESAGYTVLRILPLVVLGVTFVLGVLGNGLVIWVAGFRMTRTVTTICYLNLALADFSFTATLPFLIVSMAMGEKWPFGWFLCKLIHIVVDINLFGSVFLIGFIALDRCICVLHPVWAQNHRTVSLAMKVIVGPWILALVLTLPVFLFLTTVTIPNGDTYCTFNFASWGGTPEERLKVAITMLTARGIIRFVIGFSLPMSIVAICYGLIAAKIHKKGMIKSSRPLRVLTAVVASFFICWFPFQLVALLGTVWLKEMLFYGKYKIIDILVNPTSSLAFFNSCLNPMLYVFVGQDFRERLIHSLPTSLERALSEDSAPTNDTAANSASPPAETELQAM

Chain of Epitope tagged high affinity fMLP receptor FPR (on ETFR cells) (P21462 whole entry): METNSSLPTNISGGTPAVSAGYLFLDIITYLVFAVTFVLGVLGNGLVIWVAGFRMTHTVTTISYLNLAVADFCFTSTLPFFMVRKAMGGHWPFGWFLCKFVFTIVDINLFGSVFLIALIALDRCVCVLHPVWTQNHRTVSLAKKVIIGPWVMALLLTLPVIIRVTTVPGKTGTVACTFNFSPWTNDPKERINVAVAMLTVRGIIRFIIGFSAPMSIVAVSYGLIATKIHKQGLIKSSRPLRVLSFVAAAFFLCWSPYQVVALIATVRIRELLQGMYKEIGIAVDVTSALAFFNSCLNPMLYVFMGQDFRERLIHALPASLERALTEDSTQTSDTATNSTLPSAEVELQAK

For the substance “N-formyl-methionyl-leucyl-phenylalanine (fMLP) (peptide)”, the Ca^2+ mobilization in ETFR cells, minimal effective dose in experiment [1] came out at 100 pM. Moreover, the cross-desensitization of Ca^2+ flux in FPRL1/293 cells in experiment [2] came out at 100000 fold excess.
